{
  "source": "patent US20210087281A1",
  "about": "(AGOMAB THERAPEUTICS, published 2021)",
  "binders": {"B1": {"name": "71G3 chimeric llama-human IgG1 mAb (antibody, V domains shown)", "VH": "QVQLVESGGGLVQPGGSLRVSCAASGFTFSTYYMSWVRQAPGKGLEWVSDIRTDGGTYYADSVKGRFTMSRDNAKNTLYLQMNSLKPEDTALYYCARTRIFPSGYDYWGQGTQVTVSS", "VL": "QAVVTQEPSLSVSPGGTVTLTCGLSSGSVTTSNYPGWFQQTPGQAPRTLIYNTNSRHSGVPSRFSGSISGNKAALTIMGAQPEDEADYYCSLYPGSTTVFGGGTHLTVL", "notes": "llama VH on human IgG1 CH1-CH2-CH3, llama VL on human lambda CL"}},
  "key": {"[1]": {"target": "T1, mouse MET-Fc (R&D Systems) (mouse, UniProt P16056 25-929, limits assumed)", "T1 construct": "bought chimeric protein; also called mMET; not shown: Fc part", "test": "competition ELISA, mMET-Fc in solid phase, competitor 0.3 nM biotinylated mHGF", "method_in_brief": "(§1)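 Values are IC₅₀, the antibody level reaching half-maximal competition, and IMAX, the highest percent competition at saturation. Each antibody was added from 0 to 120 nM alongside HGF labelled at the N-terminus with NHS-LC-biotin, on immobilized MET-Fc.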"}, "[2]": {"target": "T2, native mouse MET on living cells (mouse, UniProt P16056 25-1379)", "T2 construct": "whole, on cells; also called Mouse cells (MLP29); mouse epithelial cells expressing MET", "test": "flow cytometry, MLP29 cells", "method_in_brief": "(§2)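 Detection used a phycoerythrin-labelled anti-human IgG1 secondary and flow cytometry, measuring binding of chimeric antibodies to native MET on live A549 (human) or MLP29 (mouse) cells. Positive controls were a mouse anti-human MET and a goat anti-mouse MET antibody, each with a PE-labelled secondary.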"}, "human MET ECD": {"target": "T3, human MET ECD (human, UniProt P08581 25-932)", "T3 construct": "range 1-932; recombinant ECD made by the applicants; the stated range begins at residue 1, so it includes the signal peptide of the entry; also called hMET; hMET ECD", "T3 sequence (P08581 25-932 limits assumed, form in doubt)": "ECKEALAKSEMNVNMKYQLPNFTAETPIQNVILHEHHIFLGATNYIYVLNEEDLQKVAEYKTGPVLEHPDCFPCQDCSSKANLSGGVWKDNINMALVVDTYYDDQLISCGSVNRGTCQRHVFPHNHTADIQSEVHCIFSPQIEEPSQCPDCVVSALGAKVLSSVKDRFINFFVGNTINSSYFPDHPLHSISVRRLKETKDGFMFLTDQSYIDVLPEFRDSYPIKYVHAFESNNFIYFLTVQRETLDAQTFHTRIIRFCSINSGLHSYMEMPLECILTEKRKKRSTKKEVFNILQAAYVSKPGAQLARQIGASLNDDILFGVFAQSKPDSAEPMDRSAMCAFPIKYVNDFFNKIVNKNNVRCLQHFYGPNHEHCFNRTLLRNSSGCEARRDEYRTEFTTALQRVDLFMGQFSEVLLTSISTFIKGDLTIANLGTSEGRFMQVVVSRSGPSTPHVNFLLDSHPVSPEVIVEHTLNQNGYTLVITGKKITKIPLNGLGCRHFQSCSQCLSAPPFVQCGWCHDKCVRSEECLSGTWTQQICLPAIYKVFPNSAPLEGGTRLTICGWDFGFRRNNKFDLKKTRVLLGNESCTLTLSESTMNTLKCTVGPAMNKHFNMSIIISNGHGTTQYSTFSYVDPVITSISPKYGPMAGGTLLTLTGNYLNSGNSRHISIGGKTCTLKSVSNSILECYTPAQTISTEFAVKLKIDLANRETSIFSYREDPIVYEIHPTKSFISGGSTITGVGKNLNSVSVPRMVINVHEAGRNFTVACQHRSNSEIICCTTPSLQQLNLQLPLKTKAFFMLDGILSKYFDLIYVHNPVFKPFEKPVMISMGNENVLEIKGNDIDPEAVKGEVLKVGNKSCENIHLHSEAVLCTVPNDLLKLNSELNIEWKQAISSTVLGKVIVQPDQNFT", "test": "ELISA, MET ECD in solid phase, mAb 0-20 nM", "method_in_brief": "(§3)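 First, chimeric IgG1 (llama variable, human constant) was produced transiently in mammalian cells. Next, it was purified on protein A. Finally, graded antibody concentrations in solution were applied to plate-bound MET ECD and binding was read by ELISA.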"}, "mouse MET ECD": {"target": "T4, mouse MET ECD (mouse, UniProt P16056 25-931)", "T4 construct": "range 1-931; recombinant ECD made by the applicants; the stated range begins at residue 1; also called mMET; mMET ECD", "test": "ELISA, MET ECD in solid phase, mAb 0-20 nM", "method_in_brief": "as §3"}, "[3]": {"target": "T5, native human MET on living cells (human, UniProt P08581 25-1390)", "T5 sequence (P08581 25-1390)": "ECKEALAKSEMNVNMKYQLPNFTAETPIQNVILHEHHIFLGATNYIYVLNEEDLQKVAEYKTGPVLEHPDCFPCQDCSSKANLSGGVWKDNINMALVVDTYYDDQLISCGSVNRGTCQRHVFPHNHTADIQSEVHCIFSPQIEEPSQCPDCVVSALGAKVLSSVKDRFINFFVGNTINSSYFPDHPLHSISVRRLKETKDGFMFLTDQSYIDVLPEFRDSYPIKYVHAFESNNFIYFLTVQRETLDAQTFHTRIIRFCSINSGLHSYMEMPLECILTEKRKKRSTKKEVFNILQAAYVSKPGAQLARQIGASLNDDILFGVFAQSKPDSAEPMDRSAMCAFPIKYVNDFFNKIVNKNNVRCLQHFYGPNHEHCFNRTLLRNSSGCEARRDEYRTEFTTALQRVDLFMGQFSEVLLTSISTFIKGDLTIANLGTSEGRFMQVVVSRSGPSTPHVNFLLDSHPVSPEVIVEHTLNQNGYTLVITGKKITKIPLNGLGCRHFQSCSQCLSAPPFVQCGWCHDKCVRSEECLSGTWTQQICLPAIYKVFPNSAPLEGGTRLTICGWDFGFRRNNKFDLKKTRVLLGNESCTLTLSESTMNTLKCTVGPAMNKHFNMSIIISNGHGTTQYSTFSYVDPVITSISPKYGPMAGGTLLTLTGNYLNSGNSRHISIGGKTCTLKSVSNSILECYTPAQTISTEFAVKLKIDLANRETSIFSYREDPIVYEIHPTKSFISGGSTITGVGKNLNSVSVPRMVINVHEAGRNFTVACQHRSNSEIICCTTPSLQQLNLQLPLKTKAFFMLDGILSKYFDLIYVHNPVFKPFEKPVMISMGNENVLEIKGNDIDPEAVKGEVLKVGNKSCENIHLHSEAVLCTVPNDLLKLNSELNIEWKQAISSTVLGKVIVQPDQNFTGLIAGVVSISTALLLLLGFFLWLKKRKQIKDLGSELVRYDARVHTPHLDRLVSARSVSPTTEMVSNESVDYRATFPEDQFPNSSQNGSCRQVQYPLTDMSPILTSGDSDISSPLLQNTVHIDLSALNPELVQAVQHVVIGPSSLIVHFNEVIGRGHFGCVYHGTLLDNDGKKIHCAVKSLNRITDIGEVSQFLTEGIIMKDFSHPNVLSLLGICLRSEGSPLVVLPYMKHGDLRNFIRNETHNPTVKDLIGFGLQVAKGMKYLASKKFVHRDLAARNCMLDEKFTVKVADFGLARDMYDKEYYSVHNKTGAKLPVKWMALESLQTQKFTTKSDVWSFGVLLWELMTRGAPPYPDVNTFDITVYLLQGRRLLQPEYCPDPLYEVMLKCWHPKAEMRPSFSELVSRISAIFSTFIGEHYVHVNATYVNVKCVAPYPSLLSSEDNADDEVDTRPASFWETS", "test": "cell-based or functional assay"}, "[4]": {"target": "T2, native mouse MET on living cells", "test": "cell-based or functional assay"}, "[5]": {"target": "T5, native human MET on living cells", "test": "flow cytometry, A549 cells", "method_in_brief": "as §2"}, "[6]": {"target": "T5, native human MET on living cells", "test": "cell-based or functional assay", "remark": "listed apart in the source"}, "[7]": {"target": "T2, native mouse MET on living cells", "test": "cell-based or functional assay", "remark": "listed apart in the source"}, "[8]": {"target": "T5, native human MET on living cells", "test": "cell-based or functional assay", "remark": "listed apart in the source"}, "[9]": {"target": "T2, native mouse MET on living cells", "test": "cell-based or functional assay", "remark": "listed apart in the source"}, "[10]": {"target": "human MET ECD mutant J (mutations 6, 7) (human) (UniProt P08581)", "test": "ELISA, MET ECD in solid phase, mAb 0-50 nM"}, "[11]": {"target": "human MET ECD mutant I (mutations 6, 7, 8) (human) (UniProt P08581)", "test": "ELISA, MET ECD in solid phase, mAb 0-50 nM"}, "[12]": {"target": "T6, human MET-Fc (R&D Systems) (human, UniProt P08581 25-932)", "T6 construct": "extracellular domain; bought chimeric protein; also called hMET; not shown: Fc portion of human IgG1", "T6 sequence (P08581 25-932)": "as the sequence (P08581 25-932 limits assumed, form in doubt) above", "test": "competition ELISA, hMET-Fc in solid phase, competitor 0.3 nM biotinylated hHGF", "method_in_brief": "as §1"}, "[13]": {"target": "T5, native human MET on living cells", "test": "cell-based or functional assay", "remark": "listed apart in the source"}, "[14]": {"target": "T2, native mouse MET on living cells", "test": "cell-based or functional assay", "remark": "listed apart in the source"}},
  "data": [
    {"binder": "B1", "values": [
      {"measurement": "IC50", "setting": "[1]", "result": 0.53, "unit": "nM"},
      {"measurement": "IMAX", "setting": "[1]", "result": 62.9, "unit": "%"},
      {"measurement": "EC50", "setting": "[2]", "result": 0.214, "unit": "nM"},
      {"measurement": "EMAX", "setting": "[2]", "result": "116 % relative to control"},
      {"measurement": "EC50", "setting": "human MET ECD", "result": 0.067, "unit": "nM"},
      {"measurement": "EMAX (OD450)", "setting": "human MET ECD", "result": 2.83, "unit": "AU"},
      {"measurement": "EC50", "setting": "mouse MET ECD", "result": 0.057, "unit": "nM"},
      {"measurement": "EMAX (OD450)", "setting": "mouse MET ECD", "result": 2.98, "unit": "AU"},
      {"measurement": "scatter score 0-4, HPAF-II, 0.001 nM", "setting": "[3]", "result": 0, "unit": "score"},
      {"measurement": "scatter score 0-4, HPAF-II, 0.004 nM", "setting": "[3]", "result": 0, "unit": "score"},
      {"measurement": "scatter score 0-4, HPAF-II, 0.012 nM", "setting": "[3]", "result": 1, "unit": "score"},
      {"measurement": "scatter score 0-4, HPAF-II, 0.037 nM", "setting": "[3]", "result": 2, "unit": "score"},
      {"measurement": "scatter score 0-4, HPAF-II, 0.111 nM", "setting": "[3]", "result": 3, "unit": "score"},
      {"measurement": "scatter score 0-4, HPAF-II, 0.333 nM", "setting": "[3]", "result": 4, "unit": "score"},
      {"measurement": "scatter score 0-4, HPAF-II, 1.000 nM", "setting": "[3]", "result": 4, "unit": "score"},
      {"measurement": "scatter score 0-4, HPAF-II, 3.000 nM", "setting": "[3]", "result": 4, "unit": "score"},
      {"measurement": "scatter score 0-4, HPAF-II, 9.000 nM", "setting": "[3]", "result": 4, "unit": "score"},
      {"measurement": "scatter score 0-4, MLP29, 0.001 nM", "setting": "[4]", "result": 0, "unit": "score"},
      {"measurement": "scatter score 0-4, MLP29, 0.004 nM", "setting": "[4]", "result": 0, "unit": "score"},
      {"measurement": "scatter score 0-4, MLP29, 0.012 nM", "setting": "[4]", "result": 0, "unit": "score"},
      {"measurement": "scatter score 0-4, MLP29, 0.037 nM", "setting": "[4]", "result": 1, "unit": "score"},
      {"measurement": "scatter score 0-4, MLP29, 0.111 nM", "setting": "[4]", "result": 2, "unit": "score"},
      {"measurement": "scatter score 0-4, MLP29, 0.333 nM", "setting": "[4]", "result": 4, "unit": "score"},
      {"measurement": "scatter score 0-4, MLP29, 1.000 nM", "setting": "[4]", "result": 4, "unit": "score"},
      {"measurement": "scatter score 0-4, MLP29, 3.000 nM", "setting": "[4]", "result": 4, "unit": "score"},
      {"measurement": "scatter score 0-4, MLP29, 9.000 nM", "setting": "[4]", "result": 4, "unit": "score"},
      {"measurement": "EC50", "setting": "[5]", "result": 0.296, "unit": "nM"},
      {"measurement": "EMAX", "setting": "[5]", "result": "117 % relative to control"},
      {"measurement": "phospho-MET ELISA EC50, A549 cells", "setting": "[6]", "result": 0.41, "unit": "nM"},
      {"measurement": "phospho-MET ELISA EMAX (% HGF activity), A549 cells", "setting": "[6]", "result": 95.7, "unit": "%"},
      {"measurement": "phospho-MET ELISA EC50, MLP29 cells", "setting": "[7]", "result": 0.37, "unit": "nM"},
      {"measurement": "phospho-MET ELISA EMAX (% HGF activity), MLP29 cells", "setting": "[7]", "result": 97.8, "unit": "%"},
      {"measurement": "protection from staurosporine, viability EC50, MCF10A cells", "setting": "[8]", "result": 5.04, "unit": "nM"},
      {"measurement": "protection from staurosporine, viability EMAX, MCF10A cells", "setting": "[8]", "result": 65.2, "unit": "%"},
      {"measurement": "protection from staurosporine, viability EC50, MLP29 cells", "setting": "[9]", "result": 4.85, "unit": "nM"},
      {"measurement": "protection from staurosporine, viability EMAX, MLP29 cells", "setting": "[9]", "result": 62.3, "unit": "%"},
      {"measurement": "% binding (EMAX) compared to WT MET", "setting": "[10]", "result": 91.2, "unit": "% WT MET ECD"},
      {"measurement": "% binding (EMAX) compared to WT MET", "setting": "[11]", "result": 100, "unit": "% WT MET ECD"},
      {"measurement": "IC50", "setting": "[12]", "result": 0.49, "unit": "nM"},
      {"measurement": "IMAX", "setting": "[12]", "result": 63.2, "unit": "%"},
      {"measurement": "branches per spheroid, LOC cells, 0.5 nM", "setting": "[13]", "result": 13.7, "unit": "branches"},
      {"measurement": "branches per spheroid, LOC cells, 2.5 nM", "setting": "[13]", "result": 19, "unit": "branches"},
      {"measurement": "branches per spheroid, LOC cells, 12.5 nM", "setting": "[13]", "result": 22.3, "unit": "branches"},
      {"measurement": "branches per spheroid, MLP29 cells, 0.5 nM", "setting": "[14]", "result": 24.7, "unit": "branches"},
      {"measurement": "branches per spheroid, MLP29 cells, 2.5 nM", "setting": "[14]", "result": 34.3, "unit": "branches"},
      {"measurement": "branches per spheroid, MLP29 cells, 12.5 nM", "setting": "[14]", "result": 29.3, "unit": "branches"}
    ]}
  ]
}
